Measurements reported in patent US20250313634A1 (WUXI BIOLOGICS SHANGHAI, published 2025).
Each block holds one binder with its values, some of them ahead of it.

What was measured:
[1] = target: T1, PD-L2 expressed on transfected CHO cells (Homo sapiens (Human), UniProt Q9BQ51 20-273); assay: FACS on PD-L2 transfected CHO-K1 cells, single bar, antibody concentration not shown
T1 construct: also called PD-L2 of PD-1 ligand family
T1 sequence: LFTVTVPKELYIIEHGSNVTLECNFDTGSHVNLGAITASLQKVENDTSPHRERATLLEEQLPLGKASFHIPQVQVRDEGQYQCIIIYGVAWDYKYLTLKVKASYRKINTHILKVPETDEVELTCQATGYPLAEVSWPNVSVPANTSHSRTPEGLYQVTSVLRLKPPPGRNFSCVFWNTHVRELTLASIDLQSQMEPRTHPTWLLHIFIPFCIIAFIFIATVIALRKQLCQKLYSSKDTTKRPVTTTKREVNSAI
Experimental: 3.8 Cross-family binding assay by FACS: to examine the cross-family binding activity of the fully human antibodies, cells lines that express PD-L2 were stained with the fully human antibodies, followed by 2nd antibody staining with FITC conjugated goat anti-human IgG Fc. PD-L1 expressing cells were used as positive control. Corresponding parental cell lines were used as negative controls. The stained cells were analyzed by using a BD Biosciences FACSCanto II and FlowJo Version software.
CHO cells transfected with PD-L1 or PD-L2 were stained with fully human PD-L1 antibodies and analysis by FACS.

murine PD-L1 = target: T2, murine PD-L1 (mouse, UniProt Q9EP73 19-238, limits assumed); assay: ELISA, murine PD-L1 coated on the plate, goat anti-human IgG Fc-HRP; antibody concentration not shown
T2 construct: also called mouse PD-L1 (coated on ELISA plates)
T2 sequence (Q9EP73 19-238 limits assumed): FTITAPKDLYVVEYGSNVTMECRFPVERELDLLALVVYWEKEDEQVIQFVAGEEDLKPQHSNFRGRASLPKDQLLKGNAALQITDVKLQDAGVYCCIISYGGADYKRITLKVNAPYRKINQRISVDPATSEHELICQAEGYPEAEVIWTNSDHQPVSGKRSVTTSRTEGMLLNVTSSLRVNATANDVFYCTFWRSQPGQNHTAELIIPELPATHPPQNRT
Experimental: 3.7 Cross-species binding assay: the cross-reactivity of the Ab to cynomolgus and murine PD-L1 was measured by ELISA. Human, cyno and mouse PD-L1 were coated on ELISA plates, respectively. After blocking, fully human antibodies were added into the plate and incubated at room temperature for at least 2 hours. The binding of the antibodies to the coated antigens was detected by using goat anti-human IgG Fc-HRP. The color reaction was developed using TMB substrate and stopped by 2M HCl. The ELISA plates were analyzed at 450 nm using a Molecular Device M5e microplate reader.

[2] = target: T3, full-length human PD-L1 expressed on CHO cells (human, UniProt Q9NZQ7 19-290); assay: FACS on CHO cells transfected with full-length human PD-L1
T3 construct: whole, on cells; also called CHO-K1 cells expressing human PD-L1; PD-L1 transfected CHO cells
T3 sequence (Q9NZQ7 19-290): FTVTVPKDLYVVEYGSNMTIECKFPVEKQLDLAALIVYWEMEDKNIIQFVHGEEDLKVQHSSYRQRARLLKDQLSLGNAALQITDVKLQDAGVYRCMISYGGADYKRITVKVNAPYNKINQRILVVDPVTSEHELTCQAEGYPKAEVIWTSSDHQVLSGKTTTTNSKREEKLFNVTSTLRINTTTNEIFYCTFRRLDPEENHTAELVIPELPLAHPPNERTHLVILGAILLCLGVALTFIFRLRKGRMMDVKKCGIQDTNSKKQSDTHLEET

[3] = target: T3, full-length human PD-L1 expressed on …; assay: FACS competition on CHO cells expressing human PD-L1; competitor mouse Fc-tagged human PD-1
Experimental: (§1) 3.1 Competition assay by FACS: to examine whether the fully human antibodies can block the binding of PD-L1 to PD-1, the CHO-K1 cells expressing human PD-L1 were incubated with various concentrations of the fully human antibodies at 4° C. for 1 hour. The unbound antibodies were washed away, and then the mouse Fc-tagged human PD-1 was added to the cells. The binding of human PD-1 to PD-L1 expressing cell was detected by using FITC-conjugated goat anti-mouse IgG, followed by the analysis using a BD Biosciences FACSCanto II and FlowJo Version software.
(§2) Then the mouse Fc-tagged human PD-1 was added to the cells. The binding of human PD-1 to PD-L1 expressing cell was detected by using FITC-conjugated goat anti-mouse IgG, followed by the FACS analysis.

[4] = target: T3, full-length human PD-L1 expressed on …; assay: FACS competition: blocking of mouse Fc-tagged human PD-1 binding to CHO cells expressing human PD-L1
Experimental: as §1, §2

recombinant human PD-L1 = target: T4, recombinant human PD-L1 (human, UniProt Q9NZQ7 19-238, limits assumed); assay: surface plasmon resonance per legend paragraph 39 and paragraph 188; column Best fit-KD, mol/L from the legend
T4 construct: Used for the SPR analyte (3.2) and for the plate-coated human PD-L1 of the cross-species ELISA (3.7); also called human PD-L1 (SPR analyte); Human PD-L1 coated on ELISA plates
T4 sequence (Q9NZQ7 19-238 limits assumed): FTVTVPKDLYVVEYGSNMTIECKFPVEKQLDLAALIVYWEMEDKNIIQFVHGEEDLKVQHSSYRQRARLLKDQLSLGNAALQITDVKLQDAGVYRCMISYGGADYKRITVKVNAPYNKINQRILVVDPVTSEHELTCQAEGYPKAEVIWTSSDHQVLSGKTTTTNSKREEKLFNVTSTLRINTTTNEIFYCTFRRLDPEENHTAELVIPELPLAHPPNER
Source text: 3.2 Affinity test by surface plasmon resonance (SPR): Antibodies were characterized for affinity and binding kinetics to PD-L1 by SPR assay using ProteOn XPR36 (Bio-Rad). Protein A protein (Sigma) was immobilized to a GLM sensor chip (Bio-Rad) through amine coupling. Purified antibodies were flowed over the sensor chip and captured by the Protein A. The chip was rotated […] and washed with running buffer (1×PBS/0.01% Tween20, Bio-Rad) until the baseline is stable. Five concentrations of human PD-L1 and running buffer were flowed against the antibody flow cell at a flow rate 100 μL/min for an association phase of 240s, followed by 600s dissociation. The chip was regenerated with pH 1.7 H₃PO₄ after each run. The association and dissociation curve was fit to a 1:1 Langmiur binding model using ProteOn software.

binding result [1]: no binding | binding result (murine PD-L1): no binding
B1: 1.46.11 (antibody, V domains shown)
VH: EVQLLESGGGLVQPGGSLRLSCAASGFTFSSYAMSWVRQAPGKGLEWVSGFSGSGFITYYADSVKGRFTISRDNSKNTLYLQMNSLRAEDTAVYYCAMPPRGYNYGPFDYWGQGTLVTVSS
VL: SYVLTQPPSVSVAPGQTARITCGGNNIGSKSVHWYQQKPGQAPVLVVYDDSDRPSGIPERFSGSNSGNTATLTISRVEAGDEADYYCQVWDSSSDHVVFGGGTKLTVL
notes: Fully human monoclonal antibody with a human constant region of IgG4 isotype

EC50 (read off the curve) [2]: ~1 nM | IC50 [3]: ~10 nM | binding result [1]: no binding | binding result (murine PD-L1): no binding | IC50 (read off the curve) [4]: ~2 nM | Kd (recombinant human PD-L1): 0.226 nM
B2: 1.20.15 (antibody, V domains shown)
VH: QLQLQESGPGLVKPSETLSLTCTVSGGSISSISNYWGWIRQPPGKGLEWIGSIYYSGSTNYNPPLKSRVTISVDTTKNQFSLKLSSVTAADTAVYYCARLTYYFDYWGQGMLVTVSS
VL: SYDLTQPPSVSVSPGQTASITCSGDKLGDKYACWYQQKPGQSPLLVIQQDSKRPSGIPARFSGSNSGNTATLTISGTQAMDEADYFCQTWDSSTVVFGGGTKLTVL
notes: Fully human monoclonal antibody with a human constant region of IgG4 isotype; also called fully human PD-L1 antibody 1.20.15; 1.20.15-VH(30712)

binding result [1]: no binding | Kd (recombinant human PD-L1): 0.478 nM
B3: 1.4.1 (antibody, V domains shown)
VH: QLQLQESGPGLVKPSESLSLTCTVSGGSISIRTYYWGWIRQPPGTGLEWMGYIYYSGSTRYNPSLKSRVTISVDTSKNQFSLKLSSVTAADTAVYYCARLSYFFDYWGQGTLVTVSS
VL: SYELTQPPSVSVSPGQTASITCSGDKLGDKYACWYQQKPGQSPVMVIYQDTKRPSGIPERFSGSNSGNTATLTISGTLAMDEADYYCQAWDSGTVIFGGGTKLTVL
notes: Fully human monoclonal antibody with a human constant region of IgG4 isotype; also called fully human PD-L1 antibody 1.4.1; 1.4.1-VH(30511)
